The text below walks through data of paper PMC10782416, “Fluorescence Correlation Spectroscopy as a Versatile Method to Define Aptamer–Protein Interactions with Single-Molecule Sensitivity”.

Data set [1] concerns the target T1, c-Met (soluble recombinant, hepatocyte growth factor receptor) (Homo sapiens, UniProt P08581 25-932). The data set can be described thus: FCS kinetics (koff/kon); kon 1.70e4 M-1 s-1; koff 4.30e-4 s-1; PBS pH 7.4; aptamer folded in PBS with 5 mM MgCl2 (1 mM for AS1411 and 36t), 90 C 2 min then cooled; final buffer not detailed; overnight at room temperature; 100 pM aptamer (1 nM for serum proteins). The settings on record: protein: commercial; tags: polyhistidine tag; label: 5'-atto633; G-quadruplex.

The target of a further data set is transferrin (Tf) (Homo sapiens, UniProt P02787 20-698). The experiment in a line: FCS; Tf 1-100 uM; PBS pH 7.4; aptamer folded in PBS with 5 mM MgCl2 (1 mM for AS1411 and 36t), 90 C 2 min then cooled; final buffer not detailed; overnight at room temperature; 100 pM aptamer (1 nM for serum proteins). The settings on record: protein: native; label: 5'-atto633; G-quadruplex.

Data set [2] deals with T1, c-Met (soluble recombinant, hepatocyte …). The data set can be described thus: FCS; serum protein mix: HSA, IgG, transferrin, fibrinogen; PBS pH 7.4; aptamer folded in PBS with 5 mM MgCl2 (1 mM for AS1411 and 36t), 90 C 2 min then cooled; final buffer not detailed; overnight at room temperature; 100 pM aptamer (1 nM for serum proteins). The conditions noted are these: protein: commercial; tags: polyhistidine tag; label: 5'-atto633; G-quadruplex.

The next data set addresses fibrinogen (Fibr) (Homo sapiens, UniProt P02671;P02675;P02679 20-629;31-491;27-433). The experiment in a line: FCS; fibrinogen 1-10 uM; PBS pH 7.4; aptamer folded in PBS with 5 mM MgCl2 (1 mM for AS1411 and 36t), 90 C 2 min then cooled; final buffer not detailed; overnight at room temperature; 100 pM aptamer (1 nM for serum proteins). The conditions noted are these: protein: native; chain copies: 2;2;2; label: 5'-atto633; G-quadruplex.

Data set [3] addresses T1, c-Met (soluble recombinant, hepatocyte …). The data set can be described thus: FCS; 5 mM Mg2+ in folding buffer; 100 pM aptamer; PBS pH 7.4; aptamer folded in PBS with 5 mM MgCl2 (1 mM for AS1411 and 36t), 90 C 2 min then cooled; final buffer not detailed; overnight at room temperature; 100 pM aptamer (1 nM for serum proteins). The settings on record: protein: commercial; tags: polyhistidine tag; label: 5'-atto633; G-quadruplex.

The target is the same in data set [4]. The experiment in a line: FCS; c-Met up to 100 nM; PBS pH 7.4; aptamer folded in PBS with 5 mM MgCl2 (1 mM for AS1411 and 36t), 90 C 2 min then cooled; final buffer not detailed; overnight at room temperature; 100 pM aptamer (1 nM for serum proteins). The settings on record: protein: commercial; tags: polyhistidine tag; chain copies: 2; label: 5'-atto633; G-quadruplex destabilized.

For a further data set, the target named is PDGF-BB (Homo sapiens, UniProt P01127 82-190). The experiment in a line: FCS; 1 mg/mL BSA; 1 mM Mg2+ in folding buffer; titration regime; PBS pH 7.4; aptamer folded in PBS with 5 mM MgCl2 (1 mM for AS1411 and 36t), 90 C 2 min then cooled; final buffer not detailed; overnight at room temperature; 100 pM aptamer (1 nM for serum proteins). The settings on record: protein: commercial; chain copies: 2; label: 5'-atto633.

Another data set deals with nucleolin (NCL) (Homo sapiens, UniProt P19338 1-710). The data set can be described thus: FCS; 1 mM Mg2+ in folding buffer; PBS pH 7.4; aptamer folded in PBS with 5 mM MgCl2 (1 mM for AS1411 and 36t), 90 C 2 min then cooled; final buffer not detailed; overnight at room temperature; 100 pM aptamer (1 nM for serum proteins). The settings on record: protein: commercial; label: 5'-atto633.

Usually Kd stands for the free concentration of one partner at which half of the binding sites on the other are occupied at equilibrium, for simple one-to-one binding.

T1 sequence (P08581 25-932): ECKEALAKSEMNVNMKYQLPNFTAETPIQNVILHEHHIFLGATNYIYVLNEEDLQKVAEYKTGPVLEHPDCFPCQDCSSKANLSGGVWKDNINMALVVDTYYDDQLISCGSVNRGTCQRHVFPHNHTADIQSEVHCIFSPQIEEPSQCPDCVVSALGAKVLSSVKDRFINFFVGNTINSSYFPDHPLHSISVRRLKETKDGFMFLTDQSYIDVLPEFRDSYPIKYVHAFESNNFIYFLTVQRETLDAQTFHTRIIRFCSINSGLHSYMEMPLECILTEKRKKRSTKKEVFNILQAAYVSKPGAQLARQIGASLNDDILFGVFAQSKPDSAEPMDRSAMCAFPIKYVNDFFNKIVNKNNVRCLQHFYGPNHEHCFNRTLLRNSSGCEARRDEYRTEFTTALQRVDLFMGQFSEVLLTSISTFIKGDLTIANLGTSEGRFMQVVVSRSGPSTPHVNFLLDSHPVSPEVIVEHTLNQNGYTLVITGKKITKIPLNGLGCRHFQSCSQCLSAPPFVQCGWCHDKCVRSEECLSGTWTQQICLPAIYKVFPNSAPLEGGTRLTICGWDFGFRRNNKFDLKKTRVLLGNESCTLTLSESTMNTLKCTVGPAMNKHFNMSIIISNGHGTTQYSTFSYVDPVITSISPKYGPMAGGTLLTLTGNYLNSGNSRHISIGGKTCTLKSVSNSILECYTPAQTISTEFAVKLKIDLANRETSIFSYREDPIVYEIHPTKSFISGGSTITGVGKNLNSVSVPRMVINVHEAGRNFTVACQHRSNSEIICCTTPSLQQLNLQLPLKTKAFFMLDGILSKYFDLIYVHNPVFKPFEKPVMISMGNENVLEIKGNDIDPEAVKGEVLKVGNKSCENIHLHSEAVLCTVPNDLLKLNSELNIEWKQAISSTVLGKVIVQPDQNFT
Chain of nucleolin (NCL) (P19338 whole entry): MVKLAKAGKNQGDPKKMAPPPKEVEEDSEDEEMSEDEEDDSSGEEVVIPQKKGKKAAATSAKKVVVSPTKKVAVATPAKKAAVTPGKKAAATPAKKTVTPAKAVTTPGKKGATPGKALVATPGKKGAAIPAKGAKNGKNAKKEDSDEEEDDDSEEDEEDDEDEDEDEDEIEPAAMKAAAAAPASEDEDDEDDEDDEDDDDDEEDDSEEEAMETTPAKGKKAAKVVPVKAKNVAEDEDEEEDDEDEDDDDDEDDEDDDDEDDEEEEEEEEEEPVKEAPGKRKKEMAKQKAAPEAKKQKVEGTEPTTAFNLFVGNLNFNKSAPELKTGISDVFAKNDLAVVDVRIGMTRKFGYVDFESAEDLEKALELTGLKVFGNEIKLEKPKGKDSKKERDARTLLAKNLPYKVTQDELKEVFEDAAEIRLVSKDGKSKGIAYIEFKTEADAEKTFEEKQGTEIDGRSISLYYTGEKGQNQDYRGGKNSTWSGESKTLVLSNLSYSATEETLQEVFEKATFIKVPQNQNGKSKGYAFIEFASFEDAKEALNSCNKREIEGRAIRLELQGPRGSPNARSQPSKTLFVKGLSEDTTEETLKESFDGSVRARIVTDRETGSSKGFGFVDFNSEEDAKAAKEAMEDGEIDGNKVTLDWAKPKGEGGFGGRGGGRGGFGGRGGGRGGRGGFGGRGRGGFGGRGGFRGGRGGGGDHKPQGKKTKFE
Chain of fibrinogen (Fibr) (P02671 20-629, chain 1 of 3): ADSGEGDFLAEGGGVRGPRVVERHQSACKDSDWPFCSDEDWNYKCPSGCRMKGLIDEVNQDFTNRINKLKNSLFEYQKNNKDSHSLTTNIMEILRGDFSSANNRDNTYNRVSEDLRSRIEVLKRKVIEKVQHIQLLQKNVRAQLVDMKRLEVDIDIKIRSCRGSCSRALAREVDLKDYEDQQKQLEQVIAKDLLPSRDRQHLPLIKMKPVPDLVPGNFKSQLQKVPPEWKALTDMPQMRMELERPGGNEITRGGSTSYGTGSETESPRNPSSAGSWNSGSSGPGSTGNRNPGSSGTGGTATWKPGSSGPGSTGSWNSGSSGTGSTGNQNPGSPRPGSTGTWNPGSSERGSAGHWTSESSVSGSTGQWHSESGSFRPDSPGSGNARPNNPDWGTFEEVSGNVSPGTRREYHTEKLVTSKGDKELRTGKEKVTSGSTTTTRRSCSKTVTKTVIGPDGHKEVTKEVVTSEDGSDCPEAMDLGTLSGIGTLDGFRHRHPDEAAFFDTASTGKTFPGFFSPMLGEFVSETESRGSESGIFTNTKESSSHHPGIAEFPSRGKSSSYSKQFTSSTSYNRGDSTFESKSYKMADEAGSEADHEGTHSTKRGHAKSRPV
Chain of fibrinogen (Fibr) (P02675 31-491, chain 2 of 3): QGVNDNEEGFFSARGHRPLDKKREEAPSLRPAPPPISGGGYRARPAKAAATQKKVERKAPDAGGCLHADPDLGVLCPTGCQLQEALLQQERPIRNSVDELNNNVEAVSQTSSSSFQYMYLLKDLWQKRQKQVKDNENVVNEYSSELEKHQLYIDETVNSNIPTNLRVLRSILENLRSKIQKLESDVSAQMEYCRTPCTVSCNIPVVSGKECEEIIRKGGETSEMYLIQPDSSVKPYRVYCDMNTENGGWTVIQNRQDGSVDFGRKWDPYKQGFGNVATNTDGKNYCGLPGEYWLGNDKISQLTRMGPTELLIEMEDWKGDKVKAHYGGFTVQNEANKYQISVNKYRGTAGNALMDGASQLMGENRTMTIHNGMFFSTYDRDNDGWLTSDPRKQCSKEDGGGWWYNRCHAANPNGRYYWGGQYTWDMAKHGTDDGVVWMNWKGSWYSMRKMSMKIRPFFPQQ
Chain of fibrinogen (Fibr) (P02679 27-433, chain 3 of 3): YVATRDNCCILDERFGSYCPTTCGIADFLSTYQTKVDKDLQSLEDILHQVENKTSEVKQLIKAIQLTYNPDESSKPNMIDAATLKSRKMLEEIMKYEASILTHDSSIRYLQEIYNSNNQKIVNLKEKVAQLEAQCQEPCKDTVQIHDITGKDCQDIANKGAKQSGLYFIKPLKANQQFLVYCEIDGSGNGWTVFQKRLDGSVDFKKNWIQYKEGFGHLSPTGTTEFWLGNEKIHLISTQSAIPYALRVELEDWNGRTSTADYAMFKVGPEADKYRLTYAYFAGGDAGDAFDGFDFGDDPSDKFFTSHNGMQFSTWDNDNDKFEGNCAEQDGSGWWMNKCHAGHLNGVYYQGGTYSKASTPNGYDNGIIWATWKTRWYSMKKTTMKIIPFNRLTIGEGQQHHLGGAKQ
Chain of PDGF-BB (P01127 82-190): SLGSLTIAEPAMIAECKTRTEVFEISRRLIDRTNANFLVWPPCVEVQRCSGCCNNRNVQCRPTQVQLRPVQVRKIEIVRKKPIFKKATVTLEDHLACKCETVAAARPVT
Chain of transferrin (Tf) (P02787 20-698): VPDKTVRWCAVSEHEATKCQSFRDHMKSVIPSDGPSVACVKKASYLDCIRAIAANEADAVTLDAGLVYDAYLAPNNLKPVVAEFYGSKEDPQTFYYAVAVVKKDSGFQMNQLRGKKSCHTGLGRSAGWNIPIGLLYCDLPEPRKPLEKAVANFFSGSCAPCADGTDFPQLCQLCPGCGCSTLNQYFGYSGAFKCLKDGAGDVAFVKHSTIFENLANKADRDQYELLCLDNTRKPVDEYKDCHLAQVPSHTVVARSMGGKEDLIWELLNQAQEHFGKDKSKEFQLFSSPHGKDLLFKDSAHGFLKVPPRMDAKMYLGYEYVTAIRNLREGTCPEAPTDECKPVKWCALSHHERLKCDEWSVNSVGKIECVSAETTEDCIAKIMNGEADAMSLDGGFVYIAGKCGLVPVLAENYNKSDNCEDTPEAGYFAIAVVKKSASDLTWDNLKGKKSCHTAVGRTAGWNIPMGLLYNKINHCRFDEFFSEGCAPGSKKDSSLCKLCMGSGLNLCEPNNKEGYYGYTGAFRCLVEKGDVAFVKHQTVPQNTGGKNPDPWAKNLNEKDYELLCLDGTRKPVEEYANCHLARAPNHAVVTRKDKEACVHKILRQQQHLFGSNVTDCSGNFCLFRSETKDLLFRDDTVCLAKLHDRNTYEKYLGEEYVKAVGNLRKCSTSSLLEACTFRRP

B1: CLN3 (structured_DNA)
DNA: ATCAGGTGGATGGTAGCTCGGTCGGGGTGGGTGGGTTGGCAAGTCTGATTA
Turning to B1, the figures for the Kd in data set [1], in data set [2] and in data set [3] were around 25 nM, 5 nM and 5 ± 1 nM, respectively. The binding result in the data set with transferrin (Tf) and with fibrinogen (Fibr) was “no binding” each time.

B2: G5mut (ssDNA)
DNA: ATCAGGCTGGATGGTAGCTCGGTCGATGTGGATGGTTTGTCAAGTCTGATTA
Regarding B2, the binding result in data set [4] is listed as “no binding”.
For CACAGGCTACGGCACGTAGAGCATCACCATGATCCTGTG (structured_DNA) [36t], the Kd in the data set with PDGF-BB was below 1 nM.
For TTTGGTGGTGGTGGTTGTGGTGGTGGTGG (structured_DNA) [AS1411], binding in the data set with nucleolin (NCL) was put at a Kd of 30 nM.
